These results are taken from article PMC10801562 (Antibodies, 2024).

Changes are numbered by the printed parent chain.

Experiment [1] concerns the target T1, recombinant human CD3ε-CD3δ heterodimeric protein (CD3εδ) (Homo sapiens).
T1 construct: human CD3ε of the recombinant CD3εδ heterodimer; human CD3δ of the recombinant CD3εδ heterodimer; source: in-house prepared
T1 chain 1: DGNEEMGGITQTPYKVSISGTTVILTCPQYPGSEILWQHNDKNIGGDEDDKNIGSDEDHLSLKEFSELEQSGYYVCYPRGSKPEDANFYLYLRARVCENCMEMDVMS
T1 chain 2: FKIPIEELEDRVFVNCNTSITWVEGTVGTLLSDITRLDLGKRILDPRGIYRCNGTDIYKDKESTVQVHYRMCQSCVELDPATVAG
Put plainly: SPR; Biacore T200, 37 °C, pH 7.4, PB-P+; antibody captured (630 RU) by anti-mouse IgG (Fc) antibody on a CM4 chip; human CD3εδ as analyte, 1.2-4800 nmol/L; 1:1 binding model (mUCHT1, mSP34). The note with it: both partners purified. On the technique in general: Surface plasmon resonance follows binding to a sensor surface in real time, without labels.

The target in experiment [2] is T2, recombinant human HER2 (Sino Biological, 10004-H08H) (Homo sapiens, UniProt P04626).
T2 construct: human epidermal growth factor receptor 2 (HER2), recombinant; also called human epidermal growth factor receptor 2; source: bought: Sino Biological
Put plainly: SPR; Biacore T200, 37 °C, pH 7.4, PB-P+ (0.05 mol/L Na-phosphate, 0.15 mol/L NaCl, 0.05% P-20); antibody captured (200 RU) by anti-mouse IgG (Fc) antibody on a CM4 chip; human HER2 as analyte, 6.3-100 nmol/L; 1:1 binding model. The note with it: both partners purified.

B1: mUCHT1 mIgG1 V1+C19, homodimeric antibody with FAST-Ig V1+C19 mutations (antibody, V domains shown)
VH: EVQLQQSGPELVKPGASMKISCKASGYSFTGYTMNWVKESHGKNLEWMGLINPYKGVSTYNQKFKDKATLTVDKSSSTAYMELLSLTSEDSAVYYCARSGYYGDSDWYFDVWGQGTTLTVFS
VL: DIQMTQTTSSLSASLGDRVTISCRASQDIRNYLNWYQKKPDGTVKLLIYYTSRLHSGVPSKFSGSGSGTDYSLTISNLEQEDIATYFCQQGNTLPWTFAGGTKLEIK
notes: VH of mUCHT1; mouse IgG1 (mIgG1) heavy chain constant region; numbers count on: Eu numbering; VL of mUCHT1; mouse kappa light chain constant region (CL); numbers count on: Kabat numbering; Whole IgG of one HC and one LC; also called anti-CD3; H2L2H2L2; source: Expi293F, transiently expressed, purified (Ab-Capcher MAG2 or MonoSpin ProG); copies: 2 + 2
Regarding B1, the dissociation constant (Kd) in experiment [1] turned out to be 1.32 nM.

B2: m4D5 mIgG1, homodimeric antibody without FAST-Ig mutations (antibody, V domains shown)
VH: QVQLQQSGPELVKPGASLKLSCTASGFNIKDTYIHWVKQRPEQGLEWIGRIYPTNGYTRYDPKFQDKATITADTSSNTAYLQVSRLTSEDTAVYYCSRWGGDGFYAMDYWGQGASVTVSS
VL: DIVMTQSHKFMSTSVGDRVSITCKASQDVNTAVAWYQQKPGHSPKLLIYSASFRYTGVPDRFTGSRSGTDFTFTISSVQAEDLAVYYCQQHYTTPPTFGGGTKVEIK
notes: VH of the original mouse antibody m4D5; mouse IgG1 (mIgG1) heavy chain constant region; numbers count on: Eu numbering; VL of m4D5; mouse kappa light chain constant region (CL); Whole IgG of one HC and one LC; also called anti-HER2; H1L1H1L1; source: Expi293F, transiently expressed, purified (Ab-Capcher MAG2 or MonoSpin ProG); copies: 2 + 2
Consider B2, for which the equilibrium dissociation constant (Kd) in experiment [2] was 1.03 nM.

B3: m4D5 mIgG1 V1+C19, homodimeric antibody with FAST-Ig V1+C19 mutations (antibody, V domains shown)
VH: B2 VH with Q39K
VL: B2 VL with Q38E
notes: VH of m4D5; mouse IgG1 (mIgG1) heavy chain constant region; K147 kept; numbers count on: Eu numbering; VL of m4D5; mouse kappa light chain constant region (CL); numbers count on: Kabat numbering; Whole IgG of one HC and one LC; also called anti-HER2; H1L1H1L1; source: Expi293F, transiently expressed, purified (Ab-Capcher MAG2 or MonoSpin ProG); copies: 2 + 2
Regarding B3, the equilibrium dissociation constant (Kd) in experiment [2] worked out at 1.27 nM.

B4: m4D5 mIgG2a, homodimeric antibody without FAST-Ig mutations (antibody, V domains shown)
VH: B2 VH
VL: B2 VL
notes: VH of the original mouse antibody m4D5; mouse IgG2a (mIgG2a) heavy chain constant region; numbers count on: Eu numbering; VL of m4D5; mouse kappa light chain constant region (CL); Whole IgG of one HC and one LC; also called anti-HER2; H1L1H1L1; source: Expi293F, transiently expressed, purified (Ab-Capcher MAG2, MonoSpin ProA or MonoSpin ProG); copies: 2 + 2
On to B4, for which the dissociation constant (Kd) in experiment [2] stood at 1.14 nM.

B5: m4D5 mIgG2a V1+C19, homodimeric antibody with FAST-Ig V1+C19 mutations (antibody, V domains shown)
VH: B2 VH with Q39K
VL: B2 VL with Q38E
notes: VH of m4D5; mouse IgG2a (mIgG2a) heavy chain constant region; K147 kept; numbers count on: Eu numbering; VL of m4D5; mouse kappa light chain constant region (CL); numbers count on: Kabat numbering; Whole IgG of one HC and one LC; also called anti-HER2; H1L1H1L1; source: Expi293F, transiently expressed, purified (Ab-Capcher MAG2, MonoSpin ProA or MonoSpin ProG); copies: 2 + 2
Regarding B5, in experiment [2], the Kd stood at 0.96 nM.

B6: mSP34 mIgG1 V1+C19, homodimeric antibody with FAST-Ig V1+C19 mutations (antibody, V domains shown)
VH: EVQLVESGGGLVQPKGSLKLSCAASGFTFNTYAMNWVREAPGKGLEWVARIRSKYNNYATYYADSVKDRFTISRDDSQSILYLQMNNLKTEDTAMYYCVRHGNFGNSYVSWFAYWGQGTLVTVSA
VL: QAVVTQESALTTSPGETVTLTCRSSTGAVTTSNYANWVQKKPDHLFTGLIGGTNKRAPGVPARFSGSLIGDKAALTITGAQTEDEAIYFCALWYSNLWVFGGGTKLTVL
notes: VH of mSP34; mouse IgG1 (mIgG1) heavy chain constant region; numbers count on: Eu numbering; VL (lambda) of mSP34; mouse lambda light chain constant region (CL); numbers count on: Kabat numbering; Whole IgG of one HC and one LC; also called anti-CD3; H2L2H2L2; source: Expi293F, transiently expressed, purified (Ab-Capcher MAG2 or MonoSpin ProG); copies: 2 + 2
On to B6, for which, in experiment [1], the Kd stood at 56.9 nM.

B7: mSP34 mIgG2a, homodimeric antibody without FAST-Ig mutations (antibody, V domains shown)
VH: B6 VH with E39Q
VL: B6 VL with K40E
notes: VH of the original mouse antibody mSP34; mouse IgG2a (mIgG2a) heavy chain constant region; numbers count on: Eu numbering; VL (lambda) of the original mouse antibody mSP34; mouse lambda light chain constant region (CL); Whole IgG of one HC and one LC; also called anti-CD3; H2L2H2L2; source: Expi293F, transiently expressed, purified (Ab-Capcher MAG2, MonoSpin ProA or MonoSpin ProG); copies: 2 + 2
Consider B7, for which, in experiment [1], the Kd was 16 nM.

B8: m2C4 mIgG2a, homodimeric antibody without FAST-Ig mutations (antibody, V domains shown)
VH: EVQLQQSGPELVKPGTSVKISCKASGFTFTDYTMDWVKQSHGKSLEWIGDVNPNSGGSIYNQRFKGKASLTVDRSSRIVYMELRSLTFEDTAVYYCARNLGPSFYFDYWGQGTTLTVSS
VL: DTVMTQSHKIMSTSVGDRVSITCKASQDVSIGVAWYQQRPGQSPKLLIYSASYRYTGVPDRFTGSGSGTDFTFTISSVQAEDLAVYYCQQYYIYPYTFGGGTKLEIK
notes: VH of the original mouse antibody m2C4; mouse IgG2a (mIgG2a) heavy chain constant region; numbers count on: Eu numbering; VL of the original mouse antibody m2C4; mouse kappa light chain constant region (CL); Whole IgG of one HC and one LC; also called anti-HER2; H1L1H1L1; source: Expi293F, transiently expressed, purified (Ab-Capcher MAG2, MonoSpin ProA or MonoSpin ProG); copies: 2 + 2
B8: the Kd in experiment [2] is 1.08 nM.

B9: m2C4 mIgG2a V1+C19, homodimeric antibody with FAST-Ig V1+C19 mutations (antibody, V domains shown)
VH: B8 VH with Q39K
VL: B8 VL with Q38E
notes: VH of m2C4; mouse IgG2a (mIgG2a) heavy chain constant region; K147 kept; numbers count on: Eu numbering; VL of m2C4; mouse kappa light chain constant region (CL); numbers count on: Kabat numbering; Whole IgG of one HC and one LC; also called anti-HER2; H1L1H1L1; source: Expi293F, transiently expressed, purified (Ab-Capcher MAG2, MonoSpin ProA or MonoSpin ProG); copies: 2 + 2
For B9, in experiment [2], the Kd stood at 1.36 nM.

B10: m2C4 mIgG1, homodimeric antibody without FAST-Ig mutations (antibody, V domains shown)
VH: B8 VH
VL: B8 VL
notes: VH of the original mouse antibody m2C4; mouse IgG1 (mIgG1) heavy chain constant region; numbers count on: Eu numbering; VL of the original mouse antibody m2C4; mouse kappa light chain constant region (CL); Whole IgG of one HC and one LC; also called anti-HER2; H1L1H1L1; source: Expi293F, transiently expressed, purified (Ab-Capcher MAG2 or MonoSpin ProG); copies: 2 + 2
B10: the Kd in experiment [2] was 0.759 nM.

Usually Kd stands for a measure of binding affinity in units of concentration.
